According to PMC11066147:
Where “and” joins values, the source holds several entries; their conditions need not be identical. Equal values may be shown once.

B1: PfHop (natural protein)
chain: MVNKEEAQRLKELGNKCFQEGKYEEAVKYFSDAITNDPLDHVLYSNLSGAFASLGRFYEALESANKCISIKKDWPKGYIRKGCAEHGLRQLSNAEKTYLEGLKIDPNNKSLQDALSKVRNENMLENAQLIAHLNNIIENDPQLKSYKEENSNYPHELLNTIKSINSNPMNIRIILSTCHPKISEGVEKFFGFKFTGEGNDAEERQRQQREEEERRKKKEEEERKKKEEEEMKKQNRTPEQIQGDEHKLKGNEFYKQKKFDEALKEYEEAIQINPNDIMYHYNKAAVHIEMKNYDKAVETCLYAIENRYNFKAEFIQVAKLYNRLAISYINMKKYDLAIEAYRKSLVEDNNRATRNALKELERRKEKEEKEAYIDPDKAEEHKNKGNEYFKNNDFPNAKKEYDEAIRRNPNDAKLYSNRAAALTKLIEYPSALEDVMKAIELDPTFVKAYSRKGNLHFFMKDYYKALQAYNKGLELDPNNKECLEGYQRCAFKIDEMSKSEKVDEEQFKKSMADPEIQQIISDPQFQIILQKLNENPNSISEYIKDPKIFNGLQKLIAAGILKVR
B2: Plasmodium falciparum Hsp110 (PfHsp70-z, PF3D7_0708800) (natural protein)
chain: MSVLGIDIGNDNSVVATINKGAINVVRNDISERLTPTLVGFTEKERLIGDSALSKLKSNYKNTCRNIKNLIGKIGTDVKDDIEIHEAYGDLIPCEYNYLGYEVEYKNEKVVFSAVRVLSALLSHLIKMAEKYIGKECKEIVLSYPPTFTNCQKECLLAATKIINANVLRIISDNTAVALDYGMYRMKEFKEDNGSLLVFVNIGYANTCVCVARFFSNKCEILCDIADSNLGGRNLDNELIKYITNIFVNNYKMNPLYKNNTPELCPMGTGRLNKFLVTSTASDQQNGINNKVRIKLQEVAIKTKKVLSANNEASIHVECLYEDLDCQGSINRETFEELCSNFFLTKLKHLLDTALCISKVNIQDIHSIEVLGGSTRVPFIQNFLQQYFQKPLSKTLIADESIARGCVLSAAMVSKHYKVKEYECVEKVTHPINVEWHNINDASKSNVEKLYTRDSLKKKVKKIVIPEKGHIKLTAYYENTPDLPSNCIKELGSCIVKINEKNDKIVESHVMTTFSNYDTFTFLGAQTVTKSVIKSKDEKKKADDKTEDKGEKKDAKDQEQNDDKDQTNDNNMNEKDTNDKKEKNNETNSPNKTELKKGEEGKVQTCYTTIPIETLLAQGSYSSKDIFNFSEQEINMQHSDILEGERLKHLNELETIIYESRSRLNGIYKNFVMDDERDRILLSLDDYENWLYDNIEENKNMFIKKKEEIRDLIKNIVQKFDVYNSKQQNLGNIINHLNNIITQCSNKPSDESQNIINRTTKFLNNINSLQEQEKNKPLYEPPVYTLNDIEAEFNEVTQLAQKFFSKLEVEELAKQKAKQEKEKEKEKEKEKEKEKEKNEETNLDANEEQNNEAKNNEEKENSTKNENSANPEE

How the values were obtained:
[1] = target: PfHsp70-1LS (linker switch mutant of PfHsp70-1 carrying the linker of PfHsp70-z) (Plasmodium falciparum) (UniProt Q8IB24); assay: SPR
[2] = target: PfHsp70-zLS (linker switch mutant of PfHsp70-z carrying the linker of canonical Hsp70) (Plasmodium falciparum) (UniProt Q8IC01); assay: SPR

Binder	Kd [1]	Kd [2]	koff [2]	kon [2]
B1	27.7 nM and 10 nM and 37.6 nM			
B2		3.17 nM and 2.79 nM and 1.84 nM	4.15e-05 s⁻¹ and 4.36e-05 s⁻¹ and 5.32e-05 s⁻¹	13100 M⁻¹ s⁻¹ and 23700 M⁻¹ s⁻¹ and 19100 M⁻¹ s⁻¹
